Patent US20230279089A1 (GlaxoSmithKline, published 2023)
“And” between values parts separate entries of the source, which are not always exact repeats. Equal values may be shown once.

T1: Human TLL2 CD+CUB1 truncated antigen (human, UniProt Q9Y6L7 150-463, limits assumed)
T1 construct: domain: CD+CUB1
T1 sequence (looked up): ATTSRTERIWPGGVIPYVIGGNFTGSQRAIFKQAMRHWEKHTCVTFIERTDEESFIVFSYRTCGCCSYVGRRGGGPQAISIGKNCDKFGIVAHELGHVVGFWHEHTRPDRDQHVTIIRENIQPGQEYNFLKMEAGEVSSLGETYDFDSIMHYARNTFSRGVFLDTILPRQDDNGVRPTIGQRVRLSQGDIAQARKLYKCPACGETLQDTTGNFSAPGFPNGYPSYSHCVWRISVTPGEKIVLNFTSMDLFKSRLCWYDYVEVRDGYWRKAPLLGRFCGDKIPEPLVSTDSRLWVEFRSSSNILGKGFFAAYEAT

T2: Mouse BMP1 CD+CUB1 truncated antigen (mouse, UniProt P98063 126-439, limits assumed)
T2 construct: domain: CD+CUB1
T2 sequence (looked up): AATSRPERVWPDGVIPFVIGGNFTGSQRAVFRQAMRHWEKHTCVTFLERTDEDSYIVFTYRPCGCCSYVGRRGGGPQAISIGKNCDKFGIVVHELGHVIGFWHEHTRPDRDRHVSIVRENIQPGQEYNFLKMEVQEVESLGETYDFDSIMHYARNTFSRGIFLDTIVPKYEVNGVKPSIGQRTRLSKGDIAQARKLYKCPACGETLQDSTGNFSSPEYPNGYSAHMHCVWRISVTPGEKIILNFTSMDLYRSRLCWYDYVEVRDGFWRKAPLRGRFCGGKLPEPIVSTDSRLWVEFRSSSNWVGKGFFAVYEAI

T3: Human BMP1 CD+CUB1 truncated antigen (human, UniProt P13497 121-434, limits assumed)
T3 construct: domain: CD+CUB1
T3 sequence (looked up): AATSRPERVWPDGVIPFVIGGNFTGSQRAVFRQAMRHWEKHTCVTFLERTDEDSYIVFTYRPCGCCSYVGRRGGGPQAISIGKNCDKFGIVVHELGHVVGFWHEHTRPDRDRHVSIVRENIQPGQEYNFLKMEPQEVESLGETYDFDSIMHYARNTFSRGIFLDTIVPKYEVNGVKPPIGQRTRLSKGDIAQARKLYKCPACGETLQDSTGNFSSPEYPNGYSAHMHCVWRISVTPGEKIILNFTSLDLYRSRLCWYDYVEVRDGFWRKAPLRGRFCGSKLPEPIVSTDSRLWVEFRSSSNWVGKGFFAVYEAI

T4: Mouse BMP1-3: 126-707 (mouse, UniProt P98063 126-707)
T4 sequence (looked up): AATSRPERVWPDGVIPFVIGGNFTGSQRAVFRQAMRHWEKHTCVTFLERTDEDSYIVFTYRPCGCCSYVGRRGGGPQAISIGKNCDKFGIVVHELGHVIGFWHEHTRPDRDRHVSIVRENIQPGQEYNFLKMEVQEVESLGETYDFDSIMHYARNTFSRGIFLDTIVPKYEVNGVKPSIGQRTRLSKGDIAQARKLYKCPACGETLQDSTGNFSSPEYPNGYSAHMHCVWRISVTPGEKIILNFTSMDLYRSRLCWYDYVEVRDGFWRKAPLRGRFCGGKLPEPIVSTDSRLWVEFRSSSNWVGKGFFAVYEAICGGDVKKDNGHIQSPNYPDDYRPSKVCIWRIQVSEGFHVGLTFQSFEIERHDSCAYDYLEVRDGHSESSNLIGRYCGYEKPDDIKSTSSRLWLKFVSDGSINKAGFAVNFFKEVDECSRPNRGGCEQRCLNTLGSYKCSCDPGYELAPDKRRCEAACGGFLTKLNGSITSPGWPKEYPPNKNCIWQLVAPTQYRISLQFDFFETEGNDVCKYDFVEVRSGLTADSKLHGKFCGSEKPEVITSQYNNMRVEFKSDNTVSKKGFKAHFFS

T5: Human BMP1-1 (human, UniProt P13497-2 121-730, limits assumed)
T5 sequence (looked up): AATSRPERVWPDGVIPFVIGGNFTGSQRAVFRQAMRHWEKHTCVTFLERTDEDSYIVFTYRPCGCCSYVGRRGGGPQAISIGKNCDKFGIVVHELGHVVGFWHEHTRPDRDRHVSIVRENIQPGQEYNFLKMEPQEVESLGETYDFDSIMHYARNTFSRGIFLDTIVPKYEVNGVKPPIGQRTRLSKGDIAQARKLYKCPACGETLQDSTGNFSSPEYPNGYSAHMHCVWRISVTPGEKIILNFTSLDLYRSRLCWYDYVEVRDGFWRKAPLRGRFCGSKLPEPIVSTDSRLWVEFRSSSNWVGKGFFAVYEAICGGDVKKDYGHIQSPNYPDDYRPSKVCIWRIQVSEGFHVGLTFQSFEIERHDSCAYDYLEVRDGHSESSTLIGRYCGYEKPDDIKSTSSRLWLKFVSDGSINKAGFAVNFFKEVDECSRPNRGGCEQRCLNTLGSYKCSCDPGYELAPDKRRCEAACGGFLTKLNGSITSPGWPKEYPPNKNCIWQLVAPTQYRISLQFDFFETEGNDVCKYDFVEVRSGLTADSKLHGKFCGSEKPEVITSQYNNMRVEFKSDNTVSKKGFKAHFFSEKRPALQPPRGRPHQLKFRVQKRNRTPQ


Legend:
[1] = target: T1, Human TLL2 CD+CUB1 truncated antigen; experiment: SPR, captured mAb, HBS-EP
Method: (§1) Both antibodies 13Y039-4B06-4334 and 13Y039-3E07-2944 and the reverse chimeric antibodies were evaluated for binding to human TLL2 CD+CUB1 and mouse BMP1 CD+CUB1 truncated antigens by SPR on a BIACORE T200. Protein A/G was immobilised to a CM5 sensor chip via amine coupling and the antibodies were captured to the protein A/G surface. The antigens were passed over the captured antibody at various concentrations. The measured affinities to human TLL2 CD+CUB1 are shown in Table 2 and the measured affinities to mouse BMP1 CD+CUB1 are shown in Table 3.

[2] = target: T2, Mouse BMP1 CD+CUB1 truncated antigen; experiment: SPR, captured mAb, HBS-EP
Method: as §1

[3] = target: T3, Human BMP1 CD+CUB1 truncated antigen; experiment: SPR, captured mAb, enzyme dilution buffer
[4] = target: T3, Human BMP1 CD+CUB1 truncated antigen; experiment: SPR, captured mAb, HBS-EP
Mouse BMP1-3: 126-707 = target: T4, Mouse BMP1-3: 126-707; experiment: cell-based or functional assay
Human BMP1-1 = target: T5, Human BMP1-1; experiment: cell-based or functional assay

| Binder | binding result [1] | Kd [2] | Kd [3] [nM] | Kd [4] [nM] | pKi, app, FRET enzyme activity, Mouse BMP1 (Mouse BMP1-3: 126-707) | pKi, app, FRET enzyme activity, Human BMP1 (Human BMP1-1) |
| --- | --- | --- | --- | --- | --- | --- |
| 13Y039-3E07-2944 human variable region on mouse IgG2a LAGA Fc, mouse cKappa (Compound B) (antibody, Reverse chimera; also called 13Y039-3E07-2944, mIgG2a LAGA) heavy: QVQLQQWGAGLLKPSETLSLTCAVYGGSFFGDYWSWIRQPPGKGLEWIGEIDWSGATNYNPSLKSRVTISVDTSKNQFSLKLSSVTAADTAVYYCARGGSKELSFDIWGQGTMVTVSSAKTTAPSVYPLAPVCGDTTGSSVTLGCLVKGYFPEPVTLTWNSGSLSSGVHTFPAVLQSDLYTLSSSVTVTSSTWPSQSITCNVAHPASSTKVDKKIEPRGPTIKPCPPCKCPAPNLAGAPSVFIFPPKIKDVLMISLSPIVTCVVVDVSEDDPDVQISWFVNNVEVHTAQTQTHREDYNSTLRVVSALPIQHQDWMSGKEFKCKVNNKDLPAPIERTISKPKGSVRAPQVYVLPPPEEEMTKKQVTLTCMVTDFMPEDIYVEWTNNGKTELNYKNTEPVLDSDGSYFMYSKLRVEKKNWVERNSYSCSVVHEGLHNHHTTKSFSRTPGK light: DIQMTQSPSSLSASVGDRVTITCQASQDIANYLNWYQQKPGKAPKLLIYDASNLETGVPSRFSGSGSGTDFTFTISSLQPEDIATYYCQQADTLPFTFGGGTKVEIKRADAAPTVSIFPPSSEQLTSGGASVVCFLNNFYPKDINVKWKIDGSERQNGVLNSWTDQDSKDSTYSMSSTLTLTKDEYERHNSYTCEATHKTSTSPIVKSFNRNEC | no binding | 2.66 nM and 6.2 nM | 0.07 | 5.31 |  |  |
| 13Y039-4B06-4334 human variable region on rat IgG2b LAGA Fc and rat Kappa (Compound C) (antibody) heavy: QVQLVQSGAEVKKPGASVKVSCKASGYTFLGYYMSWVRQAPGQGLEWMGWINPLSGETNYAQKFQGRVTMTRDTSISTAYMELSRLRSDDTAVYYCARDTGELDGMNWYFDLWGRGTLVTVSSAQTTAPSVYPLAPGCGDTTSSTVTLGCLVKGYFPEPVTVTWNSGALSSDVHTFPAVLQSGLYTLTSSVTSSTWPSQTVTCNVAHPASSTKVDKKVERRNGGIGHKCPTCPTCHKCPVPELAGAPSVFIFPPKPKDILLISQNAKVTCVVVDVSEEEPDVQFSWFVNNVEVHTAQTQPREEQYNSTFRVVSALPIQHQDWMSGKEFKCKVNNKALPSPIEKTISKPKGLVRKPQVYVMGPPTEQLTEQTVSLTCLTSGFLPNDIGVEWTSNGHIEKNYKNTEPVMDSDGSFFMYSKLNVERSRWDSRAPFVCSVVHEGLHNHHVEKSISRPPGK light: EIVLTQSPATLSLSPGERATLSCRASQSVSSYLAWYQQKPGQAPRLLIYDASNRATGIPARFSGSGSGTDFTLTISSLEPEDFAVYYCQQSDSWPPTFGGGTKVEIKRADAAPTVSIFPPSTEQLATGGASVVCLMNNFYPRDISVKWKIDGTERRDGVLDSVTDQDSKDSTYSMSSTLSLTKADYESHNLYTCEVVHKTSSSPVVKSFNRNEC |  |  |  |  | 11.3 | 11.8 |
